Assay [1] deals with T1, recombinant human JAM-A/Fc (R&D Systems ref. 1103-JM) (human, UniProt Q9Y624 28-238).
T1 construct: also called hJAM-A/Fc; Human JAM-1-Fc
T1 sequence: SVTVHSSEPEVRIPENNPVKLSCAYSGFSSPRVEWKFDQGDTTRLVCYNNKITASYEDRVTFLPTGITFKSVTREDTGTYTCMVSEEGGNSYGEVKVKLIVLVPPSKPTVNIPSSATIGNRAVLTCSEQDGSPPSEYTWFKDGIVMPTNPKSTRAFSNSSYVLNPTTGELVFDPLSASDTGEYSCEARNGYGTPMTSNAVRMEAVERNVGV
The assay is described as follows: SPR (BIAcore X), KD=kd/ka. As to the method: (§1) FIG. 14 is sensorgrams obtained with a double reference, (Fc2-Fc1)6F4(Fc2-Fc1)HBS-EP. The curve is fitted using a Langmuir A+B binding model.
(§2) Murine monoclonal 6F4 antibody: 1.3 mg/ml [0351] […] Running buffer: HBS-EP (BIAcore) [0354] Binding kit: “Amine” (BIAcore) [0355] Binding buffer: Acetate pH 5.0 (BIAcore) [0356] Capturing antibody: goat IgG Fc anti-human (=GAH, goat anti-human) (Bioscience) [0357] Regeneration buffer: Glycine, HCl pH 1.5 for 30 seconds (BIAcore).

The target of assay [2] is T2, natural human JAM-A protein (F11R / junctional adhesion molecule A), isoform a (human, UniProt Q9Y624 28-299).
T2 construct: Natural protein; Mass spectrometry matched it to JAM-A isoform a; also called F11 receptor; JAM-1
T2 sequence: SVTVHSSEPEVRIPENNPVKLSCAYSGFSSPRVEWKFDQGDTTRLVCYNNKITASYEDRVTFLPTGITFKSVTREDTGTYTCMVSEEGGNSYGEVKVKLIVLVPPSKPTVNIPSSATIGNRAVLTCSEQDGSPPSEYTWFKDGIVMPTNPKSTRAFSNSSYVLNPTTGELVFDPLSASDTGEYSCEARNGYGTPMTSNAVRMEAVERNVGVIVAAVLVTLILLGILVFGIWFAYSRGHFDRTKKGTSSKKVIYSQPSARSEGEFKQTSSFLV
The experiment in a line: flow cytometry, labeling of MCF-7 cells with 6F4. In general terms: In flow cytometry, cells or beads pass a laser one at a time.

The target of assay [3] is T1, recombinant human JAM-A/Fc (R&D Systems …). The experiment in a line: SPR (BIAcore X), double reference, Langmuir A+B binding model, 25° C. As to the method: as §1, §2
In general terms: Surface plasmon resonance follows binding to a sensor surface in real time, without labels.

In assay [4] the target is T3, recombinant human JAM-B/Fc (R&D Systems ref. 1074-VJ) (human, UniProt P57087 29-236, limits assumed).
T3 construct: Bought product; also called hJAM-B/Fc; human form of JAM-B; not shown: Fc part of the bought fusion protein
T3 sequence (looked up): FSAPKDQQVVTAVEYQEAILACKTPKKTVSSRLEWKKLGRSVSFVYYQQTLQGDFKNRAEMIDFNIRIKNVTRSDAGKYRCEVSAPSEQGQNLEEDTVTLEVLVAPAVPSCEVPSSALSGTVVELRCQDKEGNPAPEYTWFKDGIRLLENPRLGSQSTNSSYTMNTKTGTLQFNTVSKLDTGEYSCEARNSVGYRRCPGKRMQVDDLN
The assay is described as follows: western blot, non-reducing, revealed with 6F4; 250, 25 and 10 ng deposited. In general terms: A western blot detects proteins with antibodies after separation by electrophoresis.

Assay [5] has as its target T4, recombinant human JAM-C/Fc (R&D Systems ref. 1189-J3) (human, UniProt Q9BX67 32-241, limits assumed).
T4 construct: Bought product; also called hJAM-C/Fc; human form of JAM-C; not shown: Fc part of the bought fusion protein
T4 sequence (looked up): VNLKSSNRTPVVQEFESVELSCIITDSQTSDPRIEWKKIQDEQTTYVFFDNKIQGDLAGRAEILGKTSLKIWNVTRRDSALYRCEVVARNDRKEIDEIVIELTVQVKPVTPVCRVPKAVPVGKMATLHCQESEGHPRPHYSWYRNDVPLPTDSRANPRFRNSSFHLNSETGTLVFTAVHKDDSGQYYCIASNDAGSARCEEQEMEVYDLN
The description is as above.

For assay [6], the target named is T5, recombinant murine JAM-A/Fc (R&D Systems ref. 1077-JM) (murine, UniProt O88792 27-238).
T5 construct: extracellular domain; Bought product; also called mJAM-A/Fc; Mouse JAM-1-Fc; not shown: Fc part of the bought fusion protein
T5 sequence (looked up): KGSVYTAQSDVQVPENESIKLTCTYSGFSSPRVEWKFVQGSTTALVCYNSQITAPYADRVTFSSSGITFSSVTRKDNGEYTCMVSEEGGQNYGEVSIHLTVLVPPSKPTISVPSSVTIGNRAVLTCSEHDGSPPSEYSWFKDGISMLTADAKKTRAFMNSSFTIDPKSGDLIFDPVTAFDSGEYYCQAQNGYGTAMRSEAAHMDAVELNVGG
The description is as above.

Consider one molecule from patent US20100092455A1 (PIERRE FABRE MEDICAMENT, published 2010).

B1: murine monoclonal 6F4 antibody (antibody, V domains shown)
VH: EIQLQQSGPELVKPGASVKVSCKASGYSFTDYSMYWVKQSHGKSLEWIGYIDPYNGGTRYNQKFKGKATLTVDKSSSTAFMHLNSLTSEDSAVYYCARQTDYFDYWGQGTTLTVSS
VL: DIQMTQSPSSLSASLGGKVTITCKASQDINNYIAWYQHKPGKGPRLLIHYTSTLQAGIPSRFSGSGSGRDYSFSISNLEPEDIGTYYCLQYDNLWTFGGGTKLEIKR
notes: also called 6F4 MAb; Mab 6F4; copies: 2 + 2
The Kd is the equilibrium constant for the complex coming apart. Broadly, the EC50 (read off the curve) is the midpoint of the concentration-response curve. A word on the koff: it is the first-order rate constant of dissociation. The term kon denotes the second-order rate constant of association. With B1, the Kd in assay [1] came to 0.022 nM. Moreover, the “EC50 (read off the curve)” value in assay [2] is roughly 0.3 µg/mL. Moreover, the koff in assay [3] came to 2.5e-07 s⁻¹. Further, the kon in assay [3] is 138000 M⁻¹ s⁻¹. The binding result in assay [4], in assay [5] and in assay [6] was “no binding (tested: 250 ng)” in each case.
